{"source": "patent US20050050591A1", "about": "(published 2005)", "target": "Cdc2MsB, A-type cyclin-dependent kinase of Medicago sativa (two-hybrid bait, GAL4 DNA binding domain fusion) (Medicago sativa, UniProt P04386 1-147; Q05006 1-294)", "assay": "yeast two-hybrid (growth on selective medium, beta-galactosidase)", "from_the_text": "FIG. 5. Interaction in a yeast two-hybrid assay of alfalfa Cdc2-type or Cdc2-related kinases and different D-type cyclins and myosin. The different Cdc2Ms kinase cDNAs are cloned in the pGBT9 bait vector and the cDNAs of the interacting partners in the pGAD424 activation domain vector. (A) Growth of PJ69-4a yeast cells transformed with expression vectors comprising the indicated protein coding sequences on the agar surface of a selective medium lacking tryptophan, leucine, adenine and histidine. The relative growth values were also determined in liquid cultures and are numerically indicated. (B) Quantification of β-galactosidase enzyme acitivity of yeast strains described in (A).\nThe yeast strain PJ69-4A [MATa trp1-901, leu2-3,112 ura3-52, his3-200 gal4delta, gal80delta GAL2-ADE2, LYS2:: GAL1-HIS3, met2::GAL7-lacZ] (James et al. 1996), which contains three reporter genes (HIS3, ADE2 and lacZ), was used in library screening, growth tests and β-galactosidase assays. Transformation of yeast with pGBT9, pGAD424, pBD-GAL4 and pAD-GAL4 constructs was performed as described by Schiesti and Gietz (1989). The transformation mixture was plated on yeast dropout selection media either lacking leucine and tryptophan (SD-Trp-Leu) for testing the transformation efficiency or on media lacking leucine, tryptophan and histidine, for testing protein-protein interactions. […]", "data": [{"binder": "MtCycDm, novel D-type cyclin of Medicago truncatula (two-hybrid prey, GAL4 activation domain fusion) (other, not shown: large carriers, Tested only as a yeast two-hybrid fusion; The order GAL4 domain then insert follows the vector design; also called cyclin D of the invention; MTCYCDM gene product) MIEEEQLPAILMPSDCELLCGEDSSEVLTGDLPECSSDLDSSSSSQLPSSSLFAEEEEDSIAVFIEHEFKFVPGFDYVSRFQSRSLESSTREEAIAWILKVHEYYGFQPLTAYLSVNYMDRFLDSRPLPGIKWMATATFICCMFVFSSKDGGPLVPSLLDFQIEGAKYIFQPRTMLIMELLVLTILDWRLRSITHLVSSVSLRATRFTGTFNHFIISRATEIILSNIRDASFLTYRPSCIAAAAILSAANEIPNWSFVNPEHAESWCEGLSKEKIIGCYELIQEIVSSNNRRNAPKVLPQLRVTARTTRWSTVSSLSSSPSSSSSPSYSLSYKKRKLNSCFWVDVDKGNSEGREKKQTR", "values": [{"measurement": "binding result", "result": "no binding"}]}]}
